{
  "source": "patent US7407783B2",
  "about": "“Fructosylamine oxidase” (priority 2002, dated 2008)",
  "molecules": {"B1": {"name": "FAO-Q2: fructosylamine oxidase from Fusarium proliferatum GL2-1, Resource Q fraction Q2; amino acid sequence SEQ ID NO: 6 (protein, listed as Fusarium proliferatum)", "chain": "MARTVAPLNKDSGILIVGGGTWGCSTALHLARRGYTNVTVLDVNRIPSPISAGHDVNKLSNRLGTSDSKGDDEDSIWKALTYAAAQGWLHDPIFQPFCHNTGAVMAGSTPKSIKQLVEDEIGDDIDQYTPLNTAEDFRRTMPERILTGDFLGWKGFYKPRGSGWVHARKAMKAAFEESQRLGVKFITGSPEGKVESLVFEAGDVKGAKTADGKEHRADRTILSAGASAEFSLDFENQIRPTAWTLGHIQMTAEETKLYKELPPLFNINQGFFMEPDEDLHQLKMCDEHPGYCNWVDKPGSKYPQSIPFAKYQVPIEAERRMKQFLKDIMPQLADRPLVHARICWCADTQDRMFLITYHPRHPSLVIASGDCGTGYKHITSIGKFISDCMEGTLEERFAKFWRWRPEKFTEFWGKDPLDRFGADDKIMDLPKSDAEGWTDIQNDK"}, "B2": {"name": "FAO-Q1: fructosylamine oxidase from Fusarium proliferatum GL2-1, Resource Q fraction Q1; amino acid sequence SEQ ID NO: 4 (protein, listed as Fusarium proliferatum)", "chain": "MAGPPSSILIVGSGVFGLGTAWALAKRSHFSNTSITVVDDCAGQFPPEDAASVDSSRIVRADYSDPYYAALAAEAQKEWRKQGDHEVGGQGRYSESGFVLCASETPEDFKLKKSGMDYTKESAKNVELIAKETGLPVDKIQKLESTKALQEFLGTDGYPGDWGYLNGNSGWADAGEGMKWLYKQAQATGRIHFVNGKVTELVTEGDRVIGAKLSDSKILKADVVMVAAGAWSGSLVDLRGRTEATGHAVAYMDITPEEQKRLDNFPVVLNLSTGLFLIPPRNNVLKAARHTFGYINPVKINNALPPSPNDKREPFIASQPYTSRNDSSNPLTVEADKDLRRALTDLCPIRGLETRPWKEARICWYSDTRDGEWLIDYHPGWKGLFVATGDSGHGFKFLPNLGEKIVDVMQGQGGKLGEKWRWKEIQNDGVGRETNGVYTGLVTEDGSRGGRPLVLCDELEKGRALIGNTKAKL"}},
  "key": {"FAO-Q1": {"target": "FAO-Q1 (Fusarium proliferatum, UniProt A0A1L7VP54)", "assay": "Substrate specificity of FAO-Q1 (FAO activity, rate method, H2O2 colorimetry)", "type": "biochemical", "description": "(§1) Titration of enzyme can be performed by a method known in the art (e.g., kinetic method), for example, that described in Example 1 (3). In this method, hydrogen peroxide generated by the reaction of an FAO with a glycated amino acid or peptide is measured on the basis of absorbance (505 nm) of quinone pigment produced in the presence of hydrogen peroxide. The amount (μmole) of hydrogen peroxide generated per minute is calculated on the basis of molar absorptivity (5.16×10^3 M^−1 cm^−1) of quinone pigment and the resultant numerical value is taken as a unit (U) of enzyme activity.\n(§2) FAO activity of the crude enzyme solution was determined by the aforementioned rate method. The time-course of generation of hydrogen peroxide in the reaction mixture below was measured by a colorimetric method, and FAO activity was evaluated.\nA mixture (total 3 ml) except for the enzyme solution was equilibrated at 30° C. After adding the enzyme solution, the time-course of absorbance at 505 nm was measured. The amount (μmole) of hydrogen peroxide generated per minute was calculated on the basis of molar absorptivity (5.16×10^3 M^−1 cm^−1) of quinone pigment produced, and the resultant numerical value was taken as a unit(U) of enzyme activity. […]\nThe substrate specificity of the enzymes (FAO-Q1, FAO-Q2) contained in 2 fractions separated in (1), 3) above was determined. […]"}, "FAO-Q2": {"tested_on": "FAO-Q2", "assay": "Substrate specificity of FAO-Q2 (FAO activity, rate method, H2O2 colorimetry)", "type": "biochemical, Fusarium proliferatum", "settings": "for Relative activity (%) FAO-Q2: activity of FAO-Q2 on the substrate, FV = 100", "description": "as §1, §2\n(§3) A mixture (total 3 ml) except for the enzyme solution was equilibrated at 30° C. After adding the enzyme solution, the time-course of absorbance at 505 nm was measured. The amount (μmole) of hydrogen peroxide generated per minute was calculated on the basis of molar absorptivity (5.16×10^3 M^−1 cm^−1) of quinone pigment produced, and the resultant numerical value was taken as a unit(U) of enzyme activity. As a result, a strain having FAO was obtained.\nThe substrate specificity of the enzymes (FAO-Q1, FAO-Q2) contained in 2 fractions separated in (1), 3) above was determined. The FAO activity was measured using the respective two fractions as an enzyme solution according to the method described in Example 1(3). As a substrate, FV, FVH, FVHL, FVL, FVLS and FZL were used."}, "[1]": {"tested_on": "O=C(N[C@@H](CCCCNCC1(O)OC[C@@H](O)[C@@H](O)[C@@H]1O)C(=O)O)OCc1ccccc1", "assay": "cells, lysate or membranes named", "settings": "other: substrate FV or FZL; 30.0 °C", "from_the_text": "Michaelis constant for respective substrates can be determined by measuring the initial reaction rate in the process for determination of titer as described above while keeping the conditions regarding enzyme concentration, pH, temperature, and the like constant and changing only the concentration of substrate."}, "[2]": {"tested_on": "CC(C)[C@H](NCC1(O)OC[C@@H](O)[C@@H](O)[C@@H]1O)C(=O)O", "assay": "cells, lysate or membranes named", "settings": "other: substrate FV or FZL; 30.0 °C"}, "[3]": {"assay": "Determination of optimum temperature for stability of enzyme", "type": "physicochemical, Fusarium proliferatum", "settings": "incubated in 0.1 M Tris-HCl buffer (pH 8.0) at 30-65° C. for 10 minutes", "description": "Temperature conditions for the enzyme were determined by incubating FAO-Q1 or FAO-Q2 in 0.1 M Tris-HCl buffer (pH 8.0) at a temperature between 30 and 65° C. for 10 minutes, and measuring the activity under normal conditions."}, "[4]": {"assay": "FAO activity of Resource Q fractions using FV as a substrate", "type": "biochemical, Fusarium proliferatum", "settings": "Resource Q fraction", "description": "as §2, §3\nThe ammonium sulfate fraction after dialysis was subjected to chromatography under the following conditions.\nMeasurement of activity was performed in a similar manner to that described in Example 1 (3). FAOs contained in these fractions are herein referred to as “FAO-Q1” and “FAO-Q2”."}, "[5]": {"assay": "Determination of optimum pH of the enzyme reaction", "type": "biochemical, Fusarium proliferatum", "settings": "pH 3.5-10.0 tested, at 30° C.", "description": "Enzyme reaction was conducted under different pH conditions between 3.5 and 10.0 according to the method for determination of activity as described above.\nThe buffers used were 100 mM acetate buffer at pH range of 3.5-6.0, 100 mM potassium phosphate buffer at pH range of 6.0-8.0, 100 mM Tris-HCl buffer (pH range of 7.0-9.0) and 100 mM glycin-NaOH buffer at pH range of 9.0-10.0."}},
  "note": "“Also recorded” adds a separate entry of the source.",
  "data": [
    {"molecule": "O=C(N[C@@H](CCCCNCC1(O)OC[C@@H](O)[C@@H](O)[C@@H]1O)C(=O)O)OCc1ccccc1", "note": "(stereo partly shown) [FZL]", "values": [
      {"measurement": "Activity of FAO-Q1 on the substrate (in words)", "setting": "FAO-Q1", "value": "almost equally active; also recorded: almost the same activity"},
      {"measurement": "Relative activity (%) FAO-Q1", "setting": "FAO-Q1; activity of FAO-Q1 on the substrate, FV = 100", "value": 108, "unit": "%"},
      {"measurement": "Activity of FAO-Q2 on the substrate (in words)", "setting": "FAO-Q2", "value": "inactive and not"}
    ]},
    {"molecule": "FAO-Q1 (Fusarium proliferatum ET1)", "values": [
      {"measurement": "Km", "setting": "[1]", "value": 560, "unit": "µM"},
      {"measurement": "Km", "setting": "[2]", "value": 620, "unit": "µM"}
    ]},
    {"molecule": "fructosyl valine-histidine-leucine (VHL) [FVHL]", "values": [
      {"measurement": "Activity of FAO-Q2 on the substrate (in words)", "setting": "FAO-Q2", "value": "active"},
      {"measurement": "Relative activity (%) FAO-Q2", "setting": "FAO-Q2", "value": 0.6, "unit": "%"}
    ]},
    {"molecule": "fructosyl valine-leucine-serine (VLS) [FVLS]", "values": [
      {"measurement": "Relative activity (%) FAO-Q2", "setting": "FAO-Q2", "value": 3.3, "unit": "%"}
    ]},
    {"molecule": "B1", "values": [
      {"measurement": "Optimum temperature for stability of enzyme", "setting": "[3]", "value": "30-40 °C"},
      {"measurement": "specific activity(U/mg)", "setting": "[4]", "value": 0.067, "unit": "U/mg"},
      {"measurement": "Optimum pH for enzyme reaction", "setting": "[5]", "value": "about 7.0"},
      {"measurement": "Optimum pH for enzyme reaction", "setting": "[5]; listed as FAO-O2", "value": 7}
    ]},
    {"molecule": "B2", "values": [
      {"measurement": "Optimum temperature for stability of enzyme", "setting": "[3]", "value": "30-40 °C"},
      {"measurement": "specific activity(U/mg)", "setting": "[4]", "value": 0.3, "unit": "U/mg"},
      {"measurement": "Optimum pH for enzyme reaction", "setting": "[5]", "value": "about 7.5"},
      {"measurement": "Optimum pH for enzyme reaction", "setting": "[5]; listed as FAO-O 1", "value": 7.5}
    ]}
  ]
}
